Assay results as given in patent publication US20150246949A1, “Desmoglein 2 (DSG2) Binding Proteins and Uses Therefor” (UNIVERSITY OF WASHINGTON THROUGH ITS CENTER FOR …, priority 2012, published 2015).
“Also recorded” adds a separate entry of the source.

Columns and labels:
[1] = system: polarized colon cancer T84 cells; assay: Transepithelial electrical resistance (TEER) permeability assay; type: cell-based; conditions: for Effect on TEER: 5 μg dimeric Ad3 fiber knob added 1 hour to apical chamber
Method: FIG. 5. Correlation of reduced DSG2 binding with the ability to open epithelial junctions. A) Transepithelial electrical resistance (TEER) measured on polarized colon cancer T84 cells. Cells were cultured in transwell chambers until the TEER was constant, i.e. tight junctions had formed. A total of 5 μg of dimeric Ad3 fiber knobs in PBS was then added for 1 hour to the apical chamber. TEER was measured at the indicated time points. N=6. For time points 1.5 and 4 hours the difference between JO-1 vs D261N and N186D was significant (p<0.01). The arrows indicate the addition and removal of Ad3 fiber knobs. B) Enhancement of irinotecan therapy. A total of 4×10^6 A549 cells were injected subcutaneously into CB17-SCID/beige mice. Once the tumor reached a volume of ˜100 mm^3 (day 15 after implantation), the mice were injected intravenously with 2 mg/kg JO-1, E299V, N186D, or PBS, followed by an intravenous injection of irinotecan (37.5 mg/kg) one hour later. The treatment was repeated on day 25. N=5. […] The difference between “irinotecan” vs “JO-1+irinotecan” was significant (p<0.01) from day 20 on.
FIG. 9. Analysis of dimeric Ad3 fiber knob mutants with increased affinity to DSG2. A) Competition of Ad3-GFP virus infection on HeLa cells with dimeric affinity-enhanced mutant Y250F and JO-1 (dimeric wt Ad3 fiber knob). The experimental setting is as described for FIG. 3C. left panel: percentage of GFP positive cells. Right panel: mean fluorescence intensity. N=3. The standard deviation was less than 10%. B) Competition of Ad3-GFP virus infection on HeLa cells by Ad3 knob mutants with enhanced DSG2 binding but without dimerization domain. 1.5×10^5 HeLa cells were seeded into 24 well plates. Cells were incubated with the Ad3 knob mutants at the increasing concentrations for one hour at room temperature. 100 pfu/cell of Ad3GFP virus were then added and GFP expression was analyzed 18 hours later. C) TEER on colon cancer T84 cells. The experimental setting was the same as for FIG. 5A. The TEER at 4 hours is shown. N=3.
A total of 5×10^5 T84 cells were seeded in 12 mm transwell inserts (PET membrane, with 0.4 μm pore size (Corning, N.Y.) and cultured for >14 days until transepithelial electrical resistance (TEER) was stable. Culture medium was changed every 2-3 days. The cells were exposed to DSG2 ligands (20 μg/ml) in adhesion medium (DMEM, 1% FBS, 2 mM MgCl2, 20 mM HEPES) for 15 min at room temperature and TEER was measured and calculated as described elsewhere (39).

TC1-hDSG2 tumors = assay: Repeated-cycle PLD therapy study in immunocompetent mice with TC1-hDSG2 tumors; type: in vivo, hDSG2 transgenic mice; conditions: 2 mg/kg i.v. one hour before PLD/Doxil 1.5 mg/kg i.v.; 3rd and 4th cycles days 28 and 35; N=10
Method: FIG. 11. Pharmacokinetics, toxicity, and immunogenicity of JO-4. A) Serum clearance of JO-1 and JO-4. hDSG2 transgenic mice with subcutaneous TC1-hDSG2 tumors (˜600 mm^3) were intravenously injected with JO-1 or JO-4 (2 mg/kg) and serum samples were analyzed for by ELISA. N=3. Note that the y-axis has a log scale. B) Lymphocyte and platelet counts in hDSG2/TC1-hDSG2 transgenic mice after JO-1 or JO-4 injection. N=3. C) Therapy studies in immunocompetent hDSG2 transgenic mice with TC1-hDSG2 tumors. When tumors reached a volume of ˜80 mm^3, JO-1 or JO-4 (2 mg/kg) or PBS was injected intravenously followed one hour later by PLD/Doxil (i.v. 1.5 mg/kg). Treatment was repeated as indicated by arrows. Tumors were then allowed to re-grow for about two weeks. From day 15 on serum anti-JO-1/J)-4 antibodies were detectable by ELISA. Two more treatment cycles were performed at day 28 and day 35. […] The difference between JO-1/PLD vs JO-4/PLD is significant from day 31 on. N=10.
(§1) A549, MDA-MB-231, and ovc316 xenograft tumors were established by injection of the corresponding tumor cells into the mammary fat pad (1:1 with Matrigel) of CB17 mice. […] Tumor volumes were measured three times a week. […]
JO-1 and JO-4 are virus-derived proteins and immunogenic. In immunocompetent mice, serum IgG antibodies against these proteins can be detected by ELISA two weeks after injection (5). […]

ovc316 xenograft tumors = assay: Enhancement of PLD therapy in ovc316 ovarian cancer xenograft model; type: in vivo, CB17 mice; conditions: weekly
Method: FIG. 10. Combination of affinity-enhanced JO-1 versions with chemotherapy. A) Enhancement of irinotecan (I) therapy. The experimental setting was the same as in FIG. 5B. […] N=5. […] Mammary fat pad tumors were established from primary ovarian cancer ovc316 cells. Treatment was started when tumors reached a volume of 100 mm^3 Mice were injected intravenously with 2 mg/kg JO-1 or with 0.5 mg/kg JO-4, followed by an intravenous injection of PEGylated liposomal doxorubicin (PLD) (1 mg/kg) one hour later. Treatment was repeated weekly. […] A total of 4×10^6 TNBC MDA-MB-231 cells were injected into the mammary fat pad of CB17 SCID-beige mice. JO-4 (2 mg/kg) was intravenously injected 1 hour before the application of cetuximab (C) (10 mg/kg, i.p.) and nab-paclitaxel (nab-P) (5 mg/kg, i.v). Treatment was given weekly. N=10 P<0.01 at day 25 for nab-P+C vs JO-4+nab-P+C.
as §1, with “mice. TC1-DSG2 tumors were established by subcutaneous injection of TC1-DSG2 cells into DSG2 transgenic mice.” for “mice.”

Molecule | Effect on TEER [1] | Enhancing effect on PLD therapy over repeated treatment cycles (TC1-hDSG2 tumors) | Enhancement of PLD therapy (ovc316 xenograft tumors; 2 mg/kg i.v. one hour before PLD 1 mg/kg i.v.) | Enhancement of PLD therapy (ovc316 xenograft tumors; 0.5 mg/kg i.v. one hour before PLD 1 mg/kg i.v.) | TEER compared to JO-1 ([1]; dimeric affinity-enhanced mutants, TEER at 4 hours, N=3)
D261N (protein) MKVSALKEKVSALKEKVSALKEKVSALKEKVSALKEGSGGGSGGGSGGGSNSIALKNNTLWTGPKPEANCIIEYGKQNPDSKLTLILVKNGGIVNGYVTLMGASDYVNTLFKNKNVSINVELYFDATGHILPDSSSLKTDLELKYKQTADFSARGFMPSTTAYPFVLPNAGTHNENYIFGQCYYKASNGALFPLEVTVMLNKRLPDSRTSYVMTFLWSLNAGLAPETTQATLITSPFTFSYIREDD | no effect on the TEER |  |  |  | 
JO-1: recombinant protein with the Ad3 fiber knob and a domain for self-dimerization of trimeric knobs (SEQ ID NO:27) (protein) MKVSALKEKVSALKEKVSALKEKVSALKEKVSALKEGSGGGSGGGSGGGSNSIALKNNTLWTGPKPEANCIIEYGKQNPDSKLTLILVKNGGIVNGYVTLMGASDYVNTLFKNKNVSINVELYFDATGHILPDSSSLKTDLELKYKQTADFSARGFMPSTTAYPFVLPNAGTHNENYIFGQCYYKASDGALFPLEVTVMLNKRLPDSRTSYVMTFLWSLNAGLAPETTQATLITSPFTFSYIREDD | rapid decrease in the TEER | enhancing effect on PLD therapy; also recorded: continued to be effective after multiple treatment cycles | significantly increased the treatment efficiency |  | 
JO-4 (protein) MKVSALKEKVSALKEKVSALKEKVSALKEKVSALKEGSGGGSGGGSGGGSNSIALKNNTLWTGPKPEANCIIEYGKQNPDSKLTLILVKNGGIVNGYVTLMGASDYVNTLFKNKNVSINVELYFDATGHILPDSSSLKTDLELKYKQTADFSARGFMPSTTAYPFVLPNAGTHNENFIFGQCYYKASDGALFPLEVTVMLNKRLPDSRTSYVMTFLWSLNAGLAPETTQATLITSPFTFSYIREDD |  | enhancing effect on PLD therapy; also recorded: significantly stronger; also recorded: continued to be effective after multiple treatment cycles |  | even greater stimulating effect on PLD therapy; also recorded: enhances PLD therapy in an ovarian cancer model at lower dose than JO-1 | significantly higher
